Data: patent US11306156
Read-outs that look alike come from different tables or passages of the source.

Assays:
[1] = biological target: D3H44 light chain Q124E_Q160E_T180E (Kabat), N-terminal HA or FLAG tag; assay: LCCA co-expression, competing light chain m38, L1:L2 DNA 1:3 normalized to 1:1, SPR tag read-out
[2] = biological target: D3H44 light chain Q124E_T180E (Kabat), N-terminal HA or FLAG tag; assay: as above
[3] = biological target: D3H44 light chain Q124E_T178E (Kabat), N-terminal HA or FLAG tag; assay: as above
[4] = biological target: D3H44 light chain Q124R_Q160K_T178R (Kabat), N-terminal HA or FLAG tag; assay: LCCA co-expression, competing light chain m40, L1:L2 DNA 1:3 normalized to 1:1, SPR tag read-out
[5] = biological target: D3H44 light chain Q124R_Q160K_T178R (Kabat), N-terminal HA or FLAG tag; assay: LCCA co-expression, competing light chain m37, L1:L2 DNA 1:3 normalized to 1:1, SPR tag read-out
[6] = biological target: D3H44 light chain Q124R_Q160K_T178R (Kabat), N-terminal HA or FLAG tag; assay: LCCA co-expression, competing light chain m39, L1:L2 DNA 1:3 normalized to 1:1, SPR tag read-out
[7] = biological target: D3H44 light chain Q124E_Q160E_T180E (Kabat), N-terminal HA or FLAG tag; assay: LCCA co-expression, competing light chain m38, L1:L2 DNA 1:9 normalized to 1:1, SPR tag read-out
[8] = biological target: D3H44 light chain Q124R_Q160K_T178R (Kabat), N-terminal HA or FLAG tag; assay: LCCA co-expression, competing light chain m39, L1:L2 DNA 1:9 normalized to 1:1, SPR tag read-out
[9] = biological target: D3H44 light chain Q124E_T180E (Kabat), N-terminal HA or FLAG tag; assay: LCCA co-expression, competing light chain m36, L1:L2 DNA 1:9 normalized to 1:1, SPR tag read-out
[10] = biological target: D3H44 light chain S131K (Kabat), N-terminal HA or FLAG tag; assay: LCCA co-expression, competing light chain m37, L1:L2 DNA 1:3 normalized to 1:1, SPR tag read-out
[11] = biological target: D3H44 light chain Q124E_T180E (Kabat), N-terminal HA or FLAG tag; assay: LCCA co-expression, competing light chain m36, L1:L2 DNA 1:3 normalized to 1:1, SPR tag read-out
[12] = biological target: D3H44 light chain S131K (Kabat), N-terminal HA or FLAG tag; assay: LCCA co-expression, competing light chain m37, L1:L2 DNA 1:9 normalized to 1:1, SPR tag read-out
[13] = biological target: tissue factor (TF) antigen (UniProt P13726); assay: SPR (ProteOn XPR36), Fab captured on anti-penta-His surface, TF as analyte; reference wild-type D3H44 Fab; estimated value from a Fab differing only in the L chain tag
[14] = biological target: tissue factor (TF) antigen (UniProt P13726); assay: SPR (ProteOn XPR36), Fab captured on anti-penta-His surface, TF as analyte, 1:1 fit; estimated value from a Fab differing only in the L chain tag (HA or FLAG)
[15] = biological target: tissue factor (TF) antigen (UniProt P13726); assay: SPR (ProteOn XPR36), Fab captured on anti-penta-His surface, TF as analyte, 1:1 fit; batch C (stored about 2 months at 4 C)
[16] = biological target: tissue factor (TF) antigen (UniProt P13726); assay: SPR (ProteOn XPR36), Fab captured on anti-penta-His surface, TF as analyte; reference wild-type D3H44 Fab; batch C
[17] = biological target: tissue factor (TF) antigen (human (from the antibody's name 'anti-human tissue factor'; not stated for the antigen lot in the assay)) (UniProt P13726); assay: SPR (ProteOn XPR36), Fab captured on anti-penta His, TF analyte; against wild-type D3H44 Fab; batch C by the KD cell's +
[18] = biological target: tissue factor (TF) antigen (human (from the antibody's name 'anti-human tissue factor'; not stated for the antigen lot in the assay)) (UniProt P13726); assay: SPR (ProteOn XPR36): Fab captured via His tag on anti-penta His surface, TF injected, 1:1 fit; batch C (+)
[19] = biological target: tissue factor (TF) antigen (UniProt P13726); assay: SPR as for KD; reference: wild-type D3H44 Fab; estimated (*) from the Fab that differs only in the L chain tag
[20] = biological target: tissue factor (TF) antigen (UniProt P13726); assay: SPR, ProteOn XPR36; His-tagged Fab captured on anti-penta-His, TF injected; 1:1 fit
[21] = biological target: tissue factor (TF) antigen (UniProt P13726); assay: SPR, ProteOn XPR36; His-tagged Fab captured on anti-penta-His, TF injected; 1:1 fit; estimated (*) from the Fab that differs only in the L chain tag
[22] = biological target: tissue factor (TF) antigen (UniProt P13726); assay: SPR as for KD; reference: wild-type D3H44 Fab
[23] = biological target: tissue factor (TF) antigen (UniProt P13726); assay: SPR (ProteOn XPR36), Fab captured on anti-penta-His surface, TF injected as analyte, 1:1 fit; marked * (estimated from a Fab that differs only in the L chain tag); reference wild-type D3H44 Fab
[24] = biological target: tissue factor (TF) antigen (UniProt P13726); assay: SPR (ProteOn XPR36), Fab captured on anti-penta-His surface, TF injected as analyte, 1:1 fit; the row's other values are marked * (estimated); reference wild-type D3H44 Fab
[25] = biological target: tissue factor (TF) antigen (UniProt P13726); assay: SPR (ProteOn XPR36), Fab captured on anti-penta-His surface, TF injected as analyte, 1:1 fit; marked * (estimated from a Fab that differs only in the L chain tag)
[26] = biological target: D3H44 Fab heavy chain L124R_D146N_Q179K (H1 of LCCA sets 9358, 9359, 9357, 9351, 9352, 9353, 9354, 9350); assay: LCCA: H1 co-expressed with L1 and L2 (DNA 333:250:749 ng), His-tag capture on SPR chip, light chain tags detected with anti-HA/anti-FLAG; competitor L1 Q124E_V133G_S176D_T178E_T180E
[27] = biological target: D3H44 Fab heavy chain L124R_D146N_Q179K (H1 of LCCA sets 9358, 9359, 9357, 9351, 9352, 9353, 9354, 9350); assay: LCCA: H1 co-expressed with L1 and L2 (DNA 333:250:749 ng), His-tag capture on SPR chip, light chain tags detected with anti-HA/anti-FLAG; competitor L1 V133G_S176D_T178E_T180E
[28] = biological target: D3H44 Fab heavy chain L124E_L143D_K145T (H1 of LCCA sets 9214, 9217, 9216, 9219, 9220, 9225, 9228, 9229); assay: LCCA: H1 co-expressed with L1 and L2 (DNA 333:250:749 ng), His-tag capture on SPR chip, light chain tags detected with anti-HA/anti-FLAG; competitor L2 Q124E_V133G_S176D_T178E_T180E
[29] = biological target: D3H44 Fab heavy chain L124E_L143E_K145M (H1 of LCCA sets 9269, 9266, 9267, 9260, 9262, 9263); assay: as above
[30] = biological target: D3H44 Fab heavy chain L124E_L143D_K145T (H1 of LCCA sets 9214, 9217, 9216, 9219, 9220, 9225, 9228, 9229)
[31] = biological target: D3H44 Fab heavy chain L124E_L143E_K145M (H1 of LCCA sets 9269, 9266, 9267, 9260, 9262, 9263)
[32] = biological target: D3H44 Fab heavy chain L124E_L143E_K145M (H1 of LCCA sets 9269, 9266, 9267, 9260, 9262, 9263); assay: LCCA: H1 co-expressed with L1 and L2 (DNA 333:250:749 ng), His-tag capture on SPR chip, light chain tags detected with anti-HA/anti-FLAG; competitor L2 V133G_S176D_T178D_T180E
[33] = biological target: D3H44 Fab heavy chain L124E_L143D_K145T (H1 of LCCA sets 9214, 9217, 9216, 9219, 9220, 9225, 9228, 9229); remark: listed apart in the source
[34] = biological target: tissue factor (TF) (human) (UniProt P13726); assay: SPR (ProteOn), Fab captured on anti-penta His, TF analyte, 1:1 fit; estimated from Fab differing only in L chain tag

D3H44 Fab heavy chain L143E_K145T (Kabat), C-terminal ABD2-His6 tag
H1L1:H1L2 normalized median ratio [1]: 28 of 100 | H1L1:H1L2 normalized median ratio [2]: 41 of 100 | H1L1:H1L2 normalized median ratio [3]: 41 of 100 | H1L1:H1L2 normalized median ratio [4]: 59 of 100 | H1L1:H1L2 normalized median scalar value ln(r1/f1) [4]: 0.36 | H1L1:H1L2 normalized median ratio [5]: 59 of 100 | H1L1:H1L2 normalized median scalar value ln(r1/f1) [5]: 0.38 | H1L1:H1L2 normalized median ratio [6]: 72 of 100 | H1L1:H1L2 normalized median scalar value ln(r1/f1) [6]: 0.96

D3H44 Fab heavy chain L143E_K145T_Q179D (Kabat), C-terminal ABD2-His6 tag
H1L1:H1L2 normalized median ratio [1]: 16 of 100 | H1L1:H1L2 normalized median ratio [7]: 12 of 100 | H1L1:H1L2 normalized median ratio [8]: 88 of 100 | H1L1:H1L2 normalized median scalar value ln(r1/f1) [8]: 1.97 | H1L1:H1L2 normalized median ratio [6]: 84 of 100 | H1L1:H1L2 normalized median scalar value ln(r1/f1) [6]: 1.68

D3H44 Fab heavy chain Q179K (Kabat), C-terminal ABD2-His6 tag
H2L2:H2L1 normalized median ratio [1]: 87 of 100 | H2L2:H2L1 normalized median ratio [2]: 96 of 100 | H2L2:H2L1 normalized median ratio [3]: 96 of 100 | H2L2:H2L1 normalized median ratio [7]: 88 of 100 | H2L2:H2L1 normalized median ratio [4]: 4 of 100 | H2L2:H2L1 normalized median ratio [9]: 88 of 100 | H2L2:H2L1 normalized median ratio [8]: 12 of 100 | H2L2:H2L1 normalized median ratio [5]: 4 of 100 | H2L2:H2L1 normalized median ratio [10]: 2 of 100 | H2L2:H2L1 normalized median ratio [11]: 98 of 100 | H2L2:H2L1 normalized median ratio [12]: 12 of 100 | H2L2:H2L1 normalized median ratio [6]: 13 of 100

D3H44 Fab heterodimer H1 L143D_K145T_Q179E / L1 T178R
Change in median values of KD of h1l1 Fab heterodimer compared to wild type (-(log(KD design)-log(KD wt))) [13]: -0.25 | Kd [14]: 0.28 nM

D3H44 Fab heterodimer H1 L143E_K145T_Q179D / L1 T178R
Change in median values of KD of h1l1 Fab heterodimer compared to wild type (-(log(KD design)-log(KD wt))) [13]: 0.17 | Kd [15]: 0.11 nM | Change in median values of KD of h1l1 Fab heterodimer compared to wild type (-(log(KD design)-log(KD wt))) [16]: 0.17 | Kd [14]: 0.11 nM

D3H44 Fab heterodimer, H1 Q39R_Q179K / L1 Q38E_Q124E_Q160E_T180E (H1L1 Fab of LCCA set 9827)
Change in median values of KD of h1l1 Fab heterodimer compared to wild type (-(log(KD design)-log(KD wt))) [17]: -0.03 | Kd [18]: 0.17 nM

D3H44 Fab heterodimer, H1L1 of LCCA Sets # 9705, 9706, 9704 and 9703 (H1 L143E_K145T_S188L; L1 Q124R)
change in median KD compared to wild type, -(log(KD design)-log(KD wt)) [19]: -0.12 | Kd [20]: 0.21 nM | Kd [21]: 0.21 nM | change in median KD compared to wild type, -(log(KD design)-log(KD wt)) [22]: -0.12

D3H44 H1L1 Fab heterodimer, H1 L124E_L143E_K145T, L1 Q124K_V133G_S176R_T178K
Change in median KD of h1l1 Fab heterodimer compared to wild type (-(log(KD design)-log(KD wt))) (log(KD) difference) [23]: -0.12 | Change in median KD of h1l1 Fab heterodimer compared to wild type (-(log(KD design)-log(KD wt))) (log(KD) difference) [24]: -0.12 | Kd [25]: 0.21 nM

D3H44 light chain Q124K_V133G_Q160K_S176R
median LCCA performance normalized to a L1:L2 DNA ratio of 1:1 (ratio H1-L1:H1-L2), H1-L2 share (ratio part of 100) [26]: 18 | median LCCA performance normalized to a L1:L2 DNA ratio of 1:1 (ratio H1-L1:H1-L2), H1-L2 share (ratio part of 100) [27]: 26

D3H44 light chain Q124K_V133G_S176R_T178R
median LCCA performance normalized to a L1:L2 DNA ratio of 1:1 (ratio H1-L1:H1-L2), H1-L1 share (ratio part of 100) [28]: 83 | median LCCA performance normalized to a L1:L2 DNA ratio of 1:1 (ratio H1-L1:H1-L2), H1-L1 share (ratio part of 100) [29]: 84 | median LCCA performance normalized to a L1:L2 DNA ratio of 1:1 (ratio H1-L1:H1-L2), H1-L1 share (ratio part of 100) [30]: 76 | median LCCA performance normalized to a L1:L2 DNA ratio of 1:1 (ratio H1-L1:H1-L2), H1-L1 share (ratio part of 100) [31]: 87 | median LCCA performance normalized to a L1:L2 DNA ratio of 1:1 (ratio H1-L1:H1-L2), H1-L1 share (ratio part of 100) [32]: 62 | median LCCA performance normalized to a L1:L2 DNA ratio of 1:1 (ratio H1-L1:H1-L2), H1-L1 share (ratio part of 100) [33]: 87

H1L1 Fab heterodimer of LCCA set 9585 (D3H44 Fab; H: L143E_K145T; L: Q124R)
Kd [34]: 0.28 nM | change in KD vs wild type, -(log(KD design)-log(KD wt)) [34]: -0.25
